{"source": "patent US20260109745A1", "about": "(published 2026)", "molecular_target": "T1, NEO-101 antibody (chimeric NPC-1 antibody)", "T1 construct": "Chimeric (murine variable, human constant regions); Used unlabelled, biotinylated, FITC-labelled or coupled to Dynal beads depending on the assay; also called NPC-1C; NPC-1-C", "T1 sequence (VH, as listed by the source limits assumed, chain 1 of 2)": "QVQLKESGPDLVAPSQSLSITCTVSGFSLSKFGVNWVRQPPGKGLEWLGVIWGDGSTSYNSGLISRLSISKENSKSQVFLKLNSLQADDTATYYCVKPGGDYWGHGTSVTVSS", "T1 sequence (VL, as listed by the source limits assumed, chain 2 of 2)": "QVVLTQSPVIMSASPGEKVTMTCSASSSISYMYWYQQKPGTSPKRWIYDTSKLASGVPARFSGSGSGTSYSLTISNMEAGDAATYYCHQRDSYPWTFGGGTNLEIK", "experiment": "ELISA: peptide-biotin on NEO-101 coated plate", "protocol": "To solve the poor binding of peptides to 96 well plate, peptides were biotinylated using EZ-link micro NHS Biotinylation kit (Pierce Cat #21955), and labeling efficiency checked by dot blot (50%). […] The solution was blocked with 200 μl of 1% milk in TBS at RT for 20 min. Aliquots of 100 μl peptide-biotin (1 μg/ml) in 0.1% milk-TBS were added, and incubated at RT of 2 hr, followed by three washes with TBST. Streptavidin-HRP (100 μl of 1:2000 diluted in 1:10 diluted blocking buffer) was added, and the wells incubated at RT for 1 hr, followed by three washed. TMB was then added, and the wells were read at 450 nm. Positive controls for NPC-1C binding used 4B6-biotin. The results are shown in FIG. 11, which indicates biotinylated peptides bind to NPC-1C coated plate.", "note": "Ends that are not written are not given here.", "data": [{"binder": "YSHSVHAIEDNWSPRGGGGS (also: biotinylated (NHS kit) in direct ELISA, unlabelled in competition assays, Negative control peptide)", "note": "[synthetic peptide 4-1-3-C11 (control peptide)]", "values": [{"measurement": "binding result", "value": "no binding (tested: 1 ug/ml)"}]}]}
